Target: bovine RNase B, biotinylated (bovine) (UniProt P61823)
Experiment: BLI; biotinylated RNase B captured on streptavidin biosensors; purified fimbriae at 50 and 100 nM as analyte; 0.2% BSA in HBS; global fit: conformational change model for FimH^wt, 1:1 Langmuir model for FimH^FocH; one representative experiment

UniProt P61823, sequence (P61823 27-150): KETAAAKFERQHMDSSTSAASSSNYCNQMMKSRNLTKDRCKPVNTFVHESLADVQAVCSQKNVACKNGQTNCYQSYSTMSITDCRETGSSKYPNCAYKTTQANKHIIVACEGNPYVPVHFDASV

purified type 1 fimbriae carrying wild-type FimH adhesin (FimH^wt) of E. coli K12 (from UniProt P08191 22-300) (complex)
Kd: 149 nM | kact (rate of transition from LAS to HAS, conformational change model): 0.0072 s⁻¹ | kinact (rate of transition from HAS to LAS, conformational change model): 0.0128 s⁻¹ | koff (LAS dissociation rate, conformational change model): 0.256 s⁻¹ | kon (LAS association rate, conformational change model): 1.1e+06 M⁻¹ s⁻¹

From PMC8064603
